In patent US5756291:
Read-outs that look alike come from different tables or passages of the source.

How the values were obtained:
kallikrein = kallikrein (UniProt P03952+P03952); assay: filter; settings: ~1 uM protein
[1] = target: thrombin (alpha, Factor IIa) (Homo sapiens) (UniProt P00734+P00734); assay: filter

Chain of kallikrein (P03952 20-390, chain 1 of 2): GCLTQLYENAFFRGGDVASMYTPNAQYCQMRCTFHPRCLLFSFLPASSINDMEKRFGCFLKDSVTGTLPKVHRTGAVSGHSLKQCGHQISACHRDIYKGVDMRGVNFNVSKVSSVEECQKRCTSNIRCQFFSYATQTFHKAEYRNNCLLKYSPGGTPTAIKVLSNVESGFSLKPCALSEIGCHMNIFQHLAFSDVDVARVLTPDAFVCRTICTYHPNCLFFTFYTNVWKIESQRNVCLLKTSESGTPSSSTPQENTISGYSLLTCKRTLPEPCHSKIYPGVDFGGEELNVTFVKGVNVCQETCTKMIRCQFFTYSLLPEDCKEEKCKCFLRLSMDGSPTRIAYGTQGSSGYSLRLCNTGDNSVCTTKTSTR
Chain of kallikrein (P03952 391-638, chain 2 of 2): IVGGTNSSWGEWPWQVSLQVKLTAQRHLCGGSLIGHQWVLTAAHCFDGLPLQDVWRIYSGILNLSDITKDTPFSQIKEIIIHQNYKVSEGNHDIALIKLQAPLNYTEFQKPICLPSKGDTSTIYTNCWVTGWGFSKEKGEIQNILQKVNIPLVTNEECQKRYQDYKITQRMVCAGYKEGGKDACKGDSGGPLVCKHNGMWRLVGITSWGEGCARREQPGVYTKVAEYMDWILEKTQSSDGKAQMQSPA

CGGGGAGAGGTTGGTGTGGTTGGCAATGGCTAGAGTAGTGACGTTTTCGCGGTGAGGTCC
binding signal (kallikrein): < 0.5 % bound

TAGAATACTCAAGCTTCGACGNNNNNNNNNNNNNNNNNNNNAGTTTGGATCCCCGGGTAC [Round 6 pool prepared with thymidine]
Kd [1]: > 10 µM

TAGAATACTCAAGCTTCGACGNNNNNNNNNNNNNNNNNNNNAGTTTGGATCCCCGGGTAC [pentynyl-dU Round 6 pool]
Kd ([1]; 5-(1-pentynyl)-dU replacing T in amplified region): 0.4 µM

TAGAATACTCAAGCTTCGACGNNNNNNNNNNNNNNNNNNNNAGTTTGGATCCCCGGGTAC [unselected pentynyl-dU pool]
Kd ([1]; 5-(1-pentynyl)-dU replacing T in amplified region, unit micro sign lost in print): > 10 µM
